Source: patent US20190359687A1 (Bayer, published 2019)
Numbering of substitutions follows the chain as printed. No end group written: not given here. *: point of attachment. Biotin = O=C1N[C@H]2[C@H](CS[C@H]2CCCCC(=O)*)N1

Tests used:
[1] = target: T1, human glycophorin A in the red blood cell membrane (human, UniProt P02724 20-150); test: FACS on RBC of huGPA/HemA transgenic mice (muTGRBC), 1E+6 RBC/mL, scFv titrated
T1 construct: whole, on cells; used for intact RBC, isolated RBC membranes and transfected cells; the assay field tells which; also called GPA; hGPA
T1 sequence (looked up): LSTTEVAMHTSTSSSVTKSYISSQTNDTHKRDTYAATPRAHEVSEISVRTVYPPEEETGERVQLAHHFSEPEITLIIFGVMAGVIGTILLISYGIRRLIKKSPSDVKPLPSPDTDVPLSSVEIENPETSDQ

GP7 = target: T2, GP7 (human); test: peptide ELISA, summary of Table 23
T2 peptide: Biotin-SVRTVYPP
Excerpt: (§1) These peptides were attached to the surface of a streptavidin coated plate via a biotin moiety that was present at the N-terminus of each peptide.

GP10 = target: T3, GP10 (human); test: peptide ELISA, summary of Table 23
T3 peptide: Biotin-TVYPPEEE
Excerpt: as §1

GP11 = target: T4, GP11 (human); test: peptide ELISA, summary of Table 23
T4 peptide: Biotin-VYPPEEET
Excerpt: as §1

GP12 = target: T5, GP12 (human); test: peptide ELISA, summary of Table 23
T5 peptide: Biotin-YPPEEETG
Excerpt: as §1

GP13 = target: T6, GP13 (human); test: peptide ELISA, summary of Table 23
T6 peptide: Biotin-PPEEETGE
Excerpt: as §1

GP5-7 = target: T7, GP5-7 (human, biotin at the N-terminus); test: ELISA, biotin-peptide on streptavidin plate, Fab 0.5 ug/ml
T7 construct: GP5 with alanine at position 7 (V7A), already in the entry
T7 peptide: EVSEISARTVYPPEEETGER

GP5-8 = target: T8, GP5-8 (human, biotin at the N-terminus); test: as above
T8 construct: GP5 with alanine at position 8 (R8A), already in the entry
T8 peptide: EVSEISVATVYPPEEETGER

GP5-9 = target: T9, GP5-9 (human, biotin at the N-terminus); test: as above
T9 construct: GP5 with alanine at position 9 (T9A), already in the entry
T9 peptide: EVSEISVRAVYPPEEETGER

GP5-10 = target: T10, GP5-10 (human, biotin at the N-terminus); test: as above
T10 construct: GP5 with alanine at position 10 (V10A), already in the entry
T10 peptide: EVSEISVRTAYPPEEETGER

GP5-11 = target: T11, GP5-11 (human, biotin at the N-terminus); test: as above
T11 construct: GP5 with alanine at position 11 (Y11A), already in the entry
T11 peptide: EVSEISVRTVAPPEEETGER

GP5-12 = target: T12, GP5-12 (human, biotin at the N-terminus); test: as above
T12 construct: GP5 with alanine at position 12 (P12A), already in the entry
T12 peptide: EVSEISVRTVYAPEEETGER

GP5-13 = target: T13, GP5-13 (human, biotin at the N-terminus); test: as above
T13 construct: GP5 with alanine at position 13 (P13A), already in the entry
T13 peptide: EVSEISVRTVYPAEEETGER

GP5-14 = target: T14, GP5-14 (human, biotin at the N-terminus); test: as above
T14 construct: GP5 with alanine at position 14 (E14A), already in the entry
T14 peptide: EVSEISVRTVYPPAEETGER

GP5-15 = target: T15, GP5-15 (human, biotin at the N-terminus); test: as above
T15 construct: GP5 with alanine at position 15 (E15A), already in the entry
T15 peptide: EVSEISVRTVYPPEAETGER

GP5-16 = target: T16, GP5-16 (human, biotin at the N-terminus); test: as above
T16 construct: GP5 with alanine at position 16 (E16A), already in the entry
T16 peptide: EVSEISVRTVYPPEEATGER

GP5-17 = target: T17, GP5-17 (human, biotin at the N-terminus); test: as above
T17 construct: GP5 with alanine at position 17 (T17A), already in the entry
T17 peptide: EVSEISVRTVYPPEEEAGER

GP5-18 = target: T18, GP5-18 (human, biotin at the N-terminus); test: as above
T18 construct: GP5 with alanine at position 18 (G18A), already in the entry
T18 peptide: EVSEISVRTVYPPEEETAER

GP5-19 = target: T19, GP5-19 (human, biotin at the N-terminus); test: as above
T19 construct: GP5 with alanine at position 19 (E19A), already in the entry
T19 peptide: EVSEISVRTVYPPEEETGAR

GP5-20 = target: T20, GP5-20 (human, biotin at the N-terminus); test: as above
T20 construct: GP5 with alanine at position 20 (R20A), already in the entry
T20 peptide: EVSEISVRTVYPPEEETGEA

GP5-1 = target: T21, GP5-1 (human, biotin at the N-terminus); test: as above
T21 construct: GP5 with alanine at position 1 (E1A), already in the entry
T21 peptide: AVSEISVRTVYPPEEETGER

GP5-2 = target: T22, GP5-2 (human, biotin at the N-terminus); test: as above
T22 construct: GP5 with alanine at position 2 (V2A), already in the entry
T22 peptide: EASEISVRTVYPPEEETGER

GP5-3 = target: T23, GP5-3 (human, biotin at the N-terminus); test: as above
T23 construct: GP5 with alanine at position 3 (S3A), already in the entry
T23 peptide: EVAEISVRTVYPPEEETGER

GP5-4 = target: T24, GP5-4 (human, biotin at the N-terminus); test: as above
T24 construct: GP5 with alanine at position 4 (E4A), already in the entry
T24 peptide: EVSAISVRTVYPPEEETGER

GP5-5 = target: T25, GP5-5 (human, biotin at the N-terminus); test: as above
T25 construct: GP5 with alanine at position 5 (I5A), already in the entry
T25 peptide: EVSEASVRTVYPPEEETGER

GP5-6 = target: T26, GP5-6 (human, biotin at the N-terminus); test: as above
T26 construct: GP5 with alanine at position 6 (S6A), already in the entry
T26 peptide: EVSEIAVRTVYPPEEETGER

[2] = target: T27, recombinant human GPA ectodomain (human, UniProt P02724 20-91); test: SPR, IgG
T27 construct: also called recombinant hGPA ECD; recGPA
T27 sequence: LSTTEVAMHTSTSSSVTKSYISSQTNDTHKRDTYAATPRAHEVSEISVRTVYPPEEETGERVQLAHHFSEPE

[3] = target: T28, purified human glycophorin A protein (Sigma, cat # G5017) (human, UniProt P02724 20-150); test: ELISA, hGPA
T28 construct: mature; also called Sigma hGPA; Sigma GPA
T28 sequence (looked up): T1 sequence (looked up)
Description: (§2) Hybridomas were generated from the spleen cells of these mice and these hybriomas were screened first by fluorescence activated cell sorting (FACS) against isolated human and monkey (Cynomolgus monkey and Rhesus monkey) red blood cells (RBC) and then by ELISA against purified human glycophorin A protein (GPA). Isolated RBC were prepared from whole blood from normal human, cynomolgus monkey, and beagle dog, were anticoagulant with sodium heparin (Bioreclamation). 2-3 mL of whole blood was loaded gently on the top of 3 mL Ficoll Plus (Sigma Aldrich) then centrifuged at 500 g for 20 min at room temperature (RT). The RBC pellets were washed 3 times with 10 mL of PBS, and centrifuge 400 g for 10 min at RT. RBC pellets were re-suspended in PBS at the same total volume as the original blood volume to achieve the same RBC cell density as in whole blood and stored at 4° C. Purified human glycophorin A protein was obtained from Sigma Aldrich and coated on ELISA plates at 2 ug/ml. Binding of antibodies to human GPA was detected using appropriate secondary antibodies using methods well known in the art.

[4] = target: T1, human glycophorin A in the red blood …; test: FACS, hu RBC
Description: as §2

dog red blood cells = target: T29, dog red blood cells (dog); test: FACS, dog RBC
T29 construct: also called dog RBC
Description: as §2

[5] = target: T30, Cynomolgus monkey glycophorin A on Cynomolgus monkey red blood cells (Cynomolgus monkey); test: FACS, Cyno RBC
T30 construct: whole, on cells; also called Cyno RBC; Cyno GPA

[6] = target: T28, purified human glycophorin A protein …; test: ELISA, purified IgG
Description: (§3) The “Sigma GPA” is a crude preparation of human GPA extracted from human red blood cells and is therefore representative of the highly glycosylated form of the native protein.
(§4) EC 50 values were determined from a dilution curve of the antibody. Sigma GPA is partially purified GPA extracted from human red blood cells and purchased from Sigma Chemical Company (cat # G5017), asialo hGPA is human GPA that was desialylated and ECD is the recombinantly expressed ectodomain which is the extracellular portion of GPA.

[7] = target: T31, asialo hGPA (desialylated human GPA) (human, UniProt P02724 20-150, desialylated); test: ELISA, purified IgG
T31 construct: mature; also called asialo-GPA
T31 sequence (looked up): T1 sequence (looked up)
Description: as §3, §4

[8] = target: T27, recombinant human GPA ectodomain; test: ELISA, purified IgG
Description: as §3, §4

B1: TPP-7792 scFv (scFv)
scFv: DIQLTQSPSFLSASVGDRVTITCRASSSVRYIYWFQQKPGKAPKLLIYATSFRQSGVPSRFSGSGSGTEYTLTISSLQPEDFATYYCHQRNSFPYTFGQGTKLEIKEVQLVQSGAEVKKPGASVKVSCKASGYTFTTYAIHWVRQAPGQGLEWMGYINPSSGYTRYNPKFKGRVTMTRDKSTSTAYMELRSLRSDDTAVYYCWTGTRDYWGQGTTVTVSS
notes: as m101 (tag, order, linker)
How did the “EC50 (read off the curve)” value [1] turn out when B1 was run?
The value was ~20 µg/mL.

B2: TPP-7790 Fab (Fab, V domains shown)
VH: EVQLVQSGAEVKKPGASVKVSCKASGYTFTTYAIHWVRQAPGQGLEWMGYINPSSGYTRYNPKFKHRVTMTRDKSTSTAYMELRSLRSDDTAVYYCWTGTRDYWGQGTTVTVSS
VL: DIQLTQSPSFLSASVGDRVTITCRASSSVRYIYWFQQKPGKAPKLLIYATSFLQSGVPSRFSGSGSGTEYTLTISSLQPEDFATYYCHQRNSFPYTFGQGTKLEIK
notes: Tested as Fab with a 6xHIS tag
Does B2 bind (GP7)?
Result: no binding

Does B2 bind (GP10)?
Result: no binding

Does B2 bind (GP11)?
Result: no binding

Does B2 bind (GP12)?
Result: no binding

Does B2 bind (GP13)?
Result: no binding

What about the “binding signal (ELISA)” value (GP5-7) of the same binder?
Its value is 6700.

And the “binding signal (ELISA)” value (GP5-8)?
Its value is 6790.

And the “binding signal (ELISA)” value (GP5-9)?
The value was 6810.

And the “binding signal (ELISA)” value (GP5-10)?
The value was 5910.

What about the “binding signal (ELISA)” value (GP5-11) of the same binder?
Its value is 1.

And the “binding signal (ELISA)” value (GP5-12)?
The value was 6450.

What about the “binding signal (ELISA)” value (GP5-13) of the same binder?
Its value is 6570.

What about the “binding signal (ELISA)” value (GP5-14) of the same binder?
Its value is 1280.

What about the “binding signal (ELISA)” value (GP5-15) of the same binder?
The value was 6720.

And the “binding signal (ELISA)” value (GP5-16)?
Its value is 6540.

What about the “binding signal (ELISA)” value (GP5-17) of the same binder?
The value was 6870.

What about the “binding signal (ELISA)” value (GP5-18) of the same binder?
Its value is 6400.

What about the “binding signal (ELISA)” value (GP5-19) of the same binder?
Its value is 6470.

What about the “binding signal (ELISA)” value (GP5-20) of the same binder?
The value was 6440.

And the “binding signal (ELISA)” value (GP5-1)?
The value was 6210.

And the “binding signal (ELISA)” value (GP5-2)?
The value was 6360.

What about the “binding signal (ELISA)” value (GP5-3) of the same binder?
The value was 6680.

What about the “binding signal (ELISA)” value (GP5-4) of the same binder?
Its value is 6540.

And the “binding signal (ELISA)” value (GP5-5)?
Its value is 6270.

What about the “binding signal (ELISA)” value (GP5-6) of the same binder?
The value was 6520.

B3: TPP-7792 Fab (Fab, V domains shown)
VH: B2 VH with H66G
VL: B2 VL with L53R
notes: as for B2
What does the source list for B3?
binding result (GP7): no binding; binding result (GP10): no binding; binding result (GP11): no binding; binding result (GP12): no binding; binding result (GP13): no binding; binding signal (ELISA) (GP5-7): 6690; binding signal (ELISA) (GP5-8): 6700; binding signal (ELISA) (GP5-9): 7270; binding signal (ELISA) (GP5-10): 6210; binding signal (ELISA) (GP5-11): 2; binding signal (ELISA) (GP5-12): 6790; binding signal (ELISA) (GP5-13): 6960; binding signal (ELISA) (GP5-14): 2670; binding signal (ELISA) (GP5-15): 7250; binding signal (ELISA) (GP5-16): 6680; binding signal (ELISA) (GP5-17): 7410; binding signal (ELISA) (GP5-18): 7150; binding signal (ELISA) (GP5-19): 6980; binding signal (ELISA) (GP5-20): 7170; binding signal (ELISA) (GP5-1): 6800; binding signal (ELISA) (GP5-2): 6700; binding signal (ELISA) (GP5-3): 7370; binding signal (ELISA) (GP5-4): 6630; binding signal (ELISA) (GP5-5): 7400; binding signal (ELISA) (GP5-6): 6660

B4: 13G7G1/C3 (antibody, V domains shown)
VH: RVQLQQSGAELARPGASVKMSCKASGYTFTNYAMHWVKQRPGQGLEWIGYINPKSDNTNYNQKFKDKATLTTDKSSATAYMQLSSLTSDDSAVYYCQTGTRDYWGQGTTLTVSS
VL: HIVLTQSPAIMSASPGEKVTIFCSASSSITYVYWFQQKPGTSPKLWIYSTSSLPSGVPARFSGSGSGTSYSLTISRMEAEDAATYYCHQRNSYPFTFGSGTKLEIK
notes: as m8; also called TPP-3423
Which results are given for B4?
Kd [2]: 5.3 nM; koff [2]: 0.000405 s⁻¹; kon [2]: 76400 M⁻¹ s⁻¹; t½ [2]: 28.5 min; EC50 [3]: 0.402 nM; FACS signal [4]: 2880 relative flourescence units; FACS signal (dog red blood cells): 1.14 relative flourescence units; FACS signal [5]: 294 relative flourescence units; EC50 [6]: 1.45 nM; EC50 [7]: 1.24 nM; EC50 [8]: 1.43 nM
